From the DeepSol protein solubility set

assay: soluble on expression in E. coli; label from the status in PepcDB or PDB records

Q: For “MSLHKKDIIRLLETIAVYMELKGDNPFKVSAFRKAAAALEQDDRSLSEMDDMMSLSGIGKGTYSVIKEYIDEGKSSTLESLQKEVPEGLVPLLKLPGLGGKKIAKLYKELGVHDAESLKEACEQQKVQGLAGFGKKSEEKILQALGEAGKQPERFPIGYALRIAREIEEHLSQFTHIIKFSRAGSLRRARETVKDLDYIIATDHPAEVREQLLELPNIKSVIASGDTKVSVILSFEYETSVDFRLVTEEQFPTTLHHFTGSKDHNIKMRQIAKERGERISEYGVETVETGEIKTFPSEREFYAHFGLPLIPPEIRESEGHHHHHH”, which “soluble on expression in E. coli” value is on record?
A: soluble

Q: Which “soluble on expression in E. coli” value does the source give for “SLGQADTERLLSDRKLVLLVDLDQTLIHTTNDNVPNNLKDVYHFQLYGPNSPWYHTRLRPGALEFLAKMHPYYELHICTFGARNYAHMIAQFLDKDGNFFSHRILSRDECFNATSKTDNLKALFPCGDSMVCIIDDREDVWNMASNLIQVKPYHFFRHTGDINAPPGMSKNELDGKGVDFKELMSQSQK” here?
A: soluble

Q: Which “soluble on expression in E. coli” value does the source give for “MGSDKIHHHHHHMIKLKTFGSFTVGNDISSVQEGAWRSEKLEKLFVYLAMNRNRGVCIEDISEAIWQVEEETDNPVGALKNLAYRLRKALRDASFDEECIVSVRGGLYKWNDDVEVTIDVEEFDRYINEAEMAFCRSKETAIESYEKAIALYHGDFLPLRTDTHWFMTLNAFYHSRYVNTVKALAKLYIDTGCYEKLEQLCIRAIVYERSDEQIYSYLIMARMRTKKVQMAFDTYETAKAIMDKDLGVRKTVMLNKVYEELLSVTKGVSSYNIDEVKEDINEESMEGVFMCGYPVFKEIYHLEVRKSARSTIPESLVLVTVVPMYSSQPDKNHSQMKDSMHTLERALRKCLRVGDVAAKYSDSQYIVLLSKCSCDTASDVMKRIIDRFNHTCDTHSNMTIHFDIEPVSCYSSFVSDK” here?
A: not soluble

Q: Which “soluble on expression in E. coli” value does the source give for “MGSDKIHHHHHHMAYRKQLTRLKAPYLKRILLDPGRVEDWEKYPWNLPLFRGREFELEFTAPITIIVGENGTGKSTLLEAIGALAGYDEAGGGKGYMPVDHSRAIDKSGAALADNFRCHWLPKVTAGWFFRAESFYSVARYLDEAARESGATPPDFLSWSHGEGFIRFFEERCRRQGIYILDEPESALSPSRQIELLKMLRRMDQSGTAQVIMATHSPLLMACPGARLFRISRFGLEPADFRDTDHFRMLRDFSNDPDGFLAEALYEDEA” here?
A: not soluble

Q: Which “soluble on expression in E. coli” value does the source give for “MGSDKIHHHHHHMWQAISRLLSEQLGEGEIELRNELPGGEVHAAWHLRYAGHDFFVKCDERELLPGFTAEADQLELLSRSKTVTVPKVWAVGADRDYSFLVMDYLPPRPLDAHSAFILGQQIARLHQWSDQPQFGLDFDNALSTTPQPNTWQRRWSTFFAEQRIGWQLELAAEKGIAFGNIDAIVEHIQQRLASHQPQPSLLHGDLWSGNCALGPDGPYIFDPACYWGDRECDLAMLPLHTEQPPQIYDGYQSVSPLPADFLERQPVYQLYTLLNRARLFGGQHLVIAQQSLDRLLAA” here?
A: not soluble

Q: For “MGHHHHHHENLYFQSHLYFQSHMYHDRRRTGFRQYETYMKQKQSADWQLDELLEELEALETQLNSSNGGDQLLLGVSGIPASSSRENVKSISTLPPPPPALSYHQTPQQPQLLHHHNNHLGYQNGIHQITSINSAASSCSSPDGDSAFGDSSSTESSNNRCRNSAFSSNDSCRDSLNTPSPTQVSPRNGELNAEEAKAQKIRQALEKMKEAKVTKIFVKFFVEDGEALQLLIDERWTVADTLKQLAEKNHIALMEDHCIVEEYPELYIKRVYEDHEKVVENIQMWVQDSPNKLYFMRRPDKYAFISRPELYLLTPKTSDHMEIPSGDQWTIDVKQKFVSEYFHREPVVPPEMEGFLYLKSDGRKSWKKHYFVLRPSGLYYAPKSKKPTTKDLTCLMNLHSNQVYTGIGWEKKYKSPTPWCISIKLTALQMKRSQFIKYICAEDEMTFKKWLVALRIAKNGAELLENYERACQIRRETLGPASSMSAASSSTAISEVPHSLSHHQRTPSVASSIQLSSHMMNNPTHPLSVNVRNQSPASFSVNSCQQSHPSRTSAKLEIQYDEQPTGTIKRAPLDVLRRVSRASTSSPTIPQEESDSDEEFPAPPPVASVMRMPPPVTPPKPCTPLTSKKAPPPPPKRSDTTKLQSASPMAPAKNDLEAALARRREKMATMEC”, which “soluble on expression in E. coli” value is on record?
A: not soluble

Q: For “MAHHHHHHMARIPPLVVCGPSGVGKGTLIKKVLSEFPSRFRFSISCTTRNKREKETNGVDYYFVDKDDFERKLKEGQFLEFDKYANNFYGTLKSEYDLAVGEGKICLFEMNINGVKQLKESKHIQDGIYIFVKPPSIDILLGRLKNRNTEKPEEINKRMQELTREMDEADKVGFNYFIVNDDLARTYAELREYLLGSYPQLRGG”, which “soluble on expression in E. coli” value is on record?
A: soluble

Q: For “MHHHHHHSSGVDLGTENLYFQSMKSVHSSPQNTSHTIMTFYPTMEEFADFNTYVAYMESQGAHQAGLAKVIPPKEWKARQMYDDIEDILIATPLQQVTSGQGGVFTQYHKKKKAMRVGQYRRLANSKKYQTPPHQNFADLEQRYWKSHPGNPPIYGADISGSLFEESTKQWNLGHLGTILDLLEQECGVVIEGVNTPYLYFGMWKTTFAWHTEDMDLYSINYLHFGEPKTWYVVPPEHGQHLERLARELFPDISRGCEAFLRHKVALISPTVLKENGIPFNCMTQEAGEFMVTFPYGYHAGFNHGFNCAEAINFATPRWIDYGKMASQCSCGESTVTFSMDPFVRIVQPESYELWKHR”, which “soluble on expression in E. coli” value is on record?
A: soluble

Q: With “MNDTPDDTFVSGYLLYLLAASSEEASAQFHDHIRAQGLRVPEWRVLACLVDNDAMMITRLAKLSLMEQSRMTRIVDQMDARGLVTRVADAKDKRRVRVRLTDDGRALAESLVASARAHETRLLSALADTDAARIKGVLRTLLDVLDRPRESR” as the sequence, how does the “soluble on expression in E. coli” value read?
A: soluble

Q: For “HHHHHHTDPALRAAQQTPLYEQHTLCGARMVDFHGWMMPLHYGSQIDEHHAVRTDAGMFDVSHMTIVDLRGSRTREFLRYLLANDVAKLTKSGKALYSGMLNASGGVIDDLIVYYFTEDFFRLVVNSATREKDLSWITQHAEPFGIEITVRDDLSMIAVQGPNAQAKAATLFNDAQRQAVEGMKPFFGVQAGDLFIATTGYTGEAGYEIALPNEKAADFWRALVEAGVKPCGLGARDTLRLEAGMNLYGQEMDETISPLAANMGWTIAWEPADRDFIGREALEVQREHGTEKLVGLVMTEKGVLRNELPVRFTDAQGNQHEGIITSGTFSPTLGYSIALARVPEGIGETAIVQIRNREMPVKVTKPVFVRNGKAVAGLCGR”, which “soluble on expression in E. coli” value is on record?
A: soluble

Q: For “MSLGFKEYYRVFPTYTDINSQEYRSRIETLEPLLMKYMKKRGKVLDLACGVGGFSFLLEDYGFEVVGVDISEDMIRKAREYAKSRESNVEFIVGDARKLSFEDKTFDYVIFIDSIVHFEPLELNQVFKEVRRVLKPSGKFIMYFTDLRELLPRLKESLVVGQKYWISKVIPDQEERTVVIEFKSEQDSFRVRFNVWGKTGVELLAKLYFTKEAEEKVGNYSYLTVYNPKEGHHHHHH”, which “soluble on expression in E. coli” value is on record?
A: soluble

Q: Which “soluble on expression in E. coli” value does the source give for “SNAMLHYVHVGNKKSPNTLLFVHGSGCNLKIFGELEKYLEDYNCILLDLKGHGESKGQCPSTVYGYIDNVANFITNSEVTKHQKNITLIGYSMGGAIVLGVALKKLPNVRKVVSLSGGARFDKLDKDFMEKIYHNQLDNNYLLECIGGIDNPLSEKYFETLEKDPDIMINDLIACKLIDLVDNLKNIDIPVKAIVAKDELLTLVEYSEIIKKEVENSELKIFETGKHFLLVVNAKGVAEEIKNFI” here?
A: soluble

Q: Which “soluble on expression in E. coli” value does the source give for “MGSDKIHHHHHHMQTEVFSDIFPLLSTATPQTLEWLLNIAIDHEYPTGRAVLMEDAWGNAVYFVVSGWVKVRRTCGDDSVALAILGRGDFFGEMAILDESPRSTDVIALSPVKLLSISRERFIQILFKDPQLHHRMLQLMVRRLRQINQRLQIRSSPPAVKLAHTLVSLGESYGQESEQGREIFNIPFKDLAEVTEIGVEETSKIMDKLHDKGWIKIDSANNIIYLINFKQLLNLAGKV” here?
A: not soluble

Q: With “MKEAGILFEELVSIMEKLRSPEGCEWDRKQTHESLKPYLIEECYELIEAIDEKNDDMMKEELGDVLLQVVFHAQIARERGAFTIEDVIRTLNEKLIRRHPHVFGDSPGYSYKQWEDIKAQEKGKKKSSRIGEINPLVPALSMARRIQENASQVGFDWKDPEGVYEKIEEELKELKEAKDPRELEEEFGDLLFSIVNLSRFLNVDPESALRKATRKFVERFKKMEELIEKDGLVLEELPIEKLDEYWEKAKGGDET” as the sequence, how does the “soluble on expression in E. coli” value read?
A: soluble

Q: With “MFRGIVQGRGVIRSISKSEDSQRHGIAFPEGMFQLVDVDTVMLVNGCSNTVVRILGDMVYFDIDQALGTTTFDGLKEGDQVNLEIHPKFGEVVGRGGLTGNIKGTALVAAIEENDAGFSVLIDIPKGLAENLTVKDDIGIDGISLPITDMSDSIITLNYSRDLLASTNIASLAKDVKVNVEILNEW” as the sequence, how does the “soluble on expression in E. coli” value read?
A: soluble

Q: With “MSDNNDRMYELEYPSPEVSGQTAGGPTLIVALQGYADAGHAVESSSSHLMDALDHRLIASFNNDELIDYRSRRPVVVIEHNEVTSMDELNLGLHVVRDNDNKPFLMLSGPEPDLRWGDFSNAVVDLVEKFGVENTICLYAAPMTVPHTRPTVVTAHGNSTDRLKDQVSLDTRMTVPGSASLMLEKLLKDKGKNVSGYTVHVPHYVSASPYPAATLKLLQSIADSADLNLPLLALERDAEKVHRQLMEQTEESSEIQRVVGALEQQYDSELERYRNRHPQAVMPGESELPSGDEIGAEFEKFLADLDDQGGSDHKETPEA” as the sequence, how does the “soluble on expression in E. coli” value read?
A: soluble

Q: With “MGSDKIHHHHHHMYHDVSYLLSRLINGPLSLRQIYFASSNGPVPDLAYQVDFPRLEIVLEGEFVDTGAGATLVPGDVLYVPAGGWNFPQWQAPATTFSVLFGKQQLGFSVVQWDGKQYQNLAKQHVARRGPRIGSFLLQTLNEMQMQPQEQQTARLIVASLLSHCRDLLGSQIQTASRSQALFEAIRDYIDERYASALTRESVAQAFYISPNYLSHLFQKTGAIGFNEYLNHTRLEHAKTLLKGYDLKVKEVAHACGFVDSNYFCRLFRKNTERSPSEYRRQYHSQLTEKPTTPE” as the sequence, how does the “soluble on expression in E. coli” value read?
A: not soluble

Q: Which “soluble on expression in E. coli” value does the source give for “MYGTEQVISGTIIAGPELDPIEGYICVKNGIITEIGEEHTYSANIIAPCFVNAHTHLGDSVCKDPPLGKTSGFRVQKDLDSLVKPPDGLKHRILRDTSYKTLIQYIRKSLLDMIETGTCAFADFREGGVVGLAALNKALEGLNLHSLIFGRPTEPQLPLEVVLAEVRRVLSHSDGLGMSGANDLDMELLQEMTTCTRDRKKLFAIHAGEKNRSDIEKALSLEPDLLIHLTHATKKDLEDVAQTGAPVVVCPRSNFVTGSGMAPIAEMLEAEIRVAAGTDNVMLNSVNMFAEMEFMSKVFSIEDRQVFKICTLNGSFVMGPDSTGSIEKGNKANLMILNGSSNNLAGIKDPISGITKRARPDDILAVLHS” here?
A: soluble

Q: Which “soluble on expression in E. coli” value does the source give for “MGSDKIHHHHHHMRIAQVAPLWERVPPPAYGGIELVVGLLTDELVRRGHEVTLFASGDSISLANLVSVHPRALRLDSSVKEYGIYEMLQLSTVYERADEFDIIHSHMGCASLPYTKLVKTPTVHTLHGIFTPDNEKMFRYAKTEPFVSISDAQRDLRLGLNYVGTVYNGIDVNSYKFYPQPDEPPYLAFLGRISPEKGTHLAIEIAKKSGWHLKIAGKVDVVDVEYFEKEIKPLIDGKQIEYLGEADHTQKNVLMGGAVATLFPITWREPFGLVMVESMASGTPVIAMNLGSTTEVIAHGKTGFLCSNVEECVSAIAKVADLDRYTCREYVQNRFSLQAMTEGYEEVYRQILQQRFANNGHHRSTVALSKV” here?
A: not soluble

Q: Which “soluble on expression in E. coli” value does the source give for “MGSDKIHHHHHHMKKLVVRADDIGYSEGVTLGIISSYKNGIVTSAGIMVNMPFSRQAIEMVKNDDVCFGLHVNLVIGEPCCKEHIKIKNLLDEGGKFVSSKIRRTQLLTGKEVFNYEEVYEEVCAQIETYKLYMSKLPEYIDIHGIEEDVSISAMCDAAKEYGIPSCPYYLDSCISMPSKYPQNDFYKLNKSFVKLFEEKYINLDKDITLMVTHPGFIDYSLIKSSSLIQERVYEHAMLCDKEVKMWLKRNNIELVDFKDIFKSNNYI” here?
A: not soluble

Q: Which “soluble on expression in E. coli” value does the source give for “METIKISEQELINALCIYIAEKRQVGPEEVLVELMYDDDYGFSAEVEVNGRQQILIQANLIEALRLLLDREYNVNPFAARLQLELDDEEGIYALAKFNNSDD” here?
A: not soluble
